# Data taken from patent US12649778.
# “And” between values parts separate entries of the source, which are not always exact repeats. Identical values can stand only once.
# Columns and labels:
# [1] = target: Peptide 1593 (…) (Mycobacterium tuberculosis); assay: ELISA, NNK clone supernatant on coated peptide (22 hits)
# [2] = target: Peptide 1593 (…) (Mycobacterium tuberculosis); assay: ELISA, NNK clone supernatant on coated peptide
Binder,OD450 nm [1],ratio (OD450 to WT OD450) [1],OD450 nm [2],ratio (OD450 to WT OD450) [2]
"65D3 chimeric Fab, NNK library L3 mutant S to A (VL S25A) (Fab, V domains shown) VH: QSLEESGGRLVTPGGSLTLTCTVSGFSLSTHDISWVRQAPGKGLEWIGVIARRGSTYYASWAKGRFTISKTSTTVDLKITSPTIEDTATYFCAREEFDFWGQGTLVTVSS VL: AVLTQTASPVSAAVGGTVTISCQSAQSVYNNKELSWFQQKPGQPPKLLISYASTLASGVPSRFKGSGSGTQFTLTISDLECDDAATYYCLGGYASTIDMWAFGGGTEVVVK",0.972 OD450,1.21 fold of WT,0.972 OD450,1.21 fold of WT
"65D3 chimeric Fab, NNK library H17 mutant S to W (H-S55W) (Fab, V domains shown) VH: QSLEESGGRLVTPGGSLTLTCTVSGFSLSTHDISWVRQAPGKGLEWIGVIARRGWTYYASWAKGRFTISKTSTTVDLKITSPTIEDTATYFCAREEFDFWGQGTLVTVSS VL: AVLTQTASPVSAAVGGTVTISCQSSQSVYNNKELSWFQQKPGQPPKLLISYASTLASGVPSRFKGSGSGTQFTLTISDLECDDAATYYCLGGYASTIDMWAFGGGTEVVVK",,,1.28 OD450,2.06 fold of WT
"65D3 chimeric Fab, NNK library L3 mutant S to K (VL S25K) (Fab, V domains shown) VH: QSLEESGGRLVTPGGSLTLTCTVSGFSLSTHDISWVRQAPGKGLEWIGVIARRGSTYYASWAKGRFTISKTSTTVDLKITSPTIEDTATYFCAREEFDFWGQGTLVTVSS VL: AVLTQTASPVSAAVGGTVTISCQSKQSVYNNKELSWFQQKPGQPPKLLISYASTLASGVPSRFKGSGSGTQFTLTISDLECDDAATYYCLGGYASTIDMWAFGGGTEVVVK",0.982 OD450,1.22 fold of WT,0.982 OD450,1.22 fold of WT
"65D3 chimeric Fab, NNK library L3 mutant S to L (VL S25L) (Fab, V domains shown) VH: QSLEESGGRLVTPGGSLTLTCTVSGFSLSTHDISWVRQAPGKGLEWIGVIARRGSTYYASWAKGRFTISKTSTTVDLKITSPTIEDTATYFCAREEFDFWGQGTLVTVSS VL: AVLTQTASPVSAAVGGTVTISCQSLQSVYNNKELSWFQQKPGQPPKLLISYASTLASGVPSRFKGSGSGTQFTLTISDLECDDAATYYCLGGYASTIDMWAFGGGTEVVVK",0.954 OD450,1.18 fold of WT,0.954 OD450,1.18 fold of WT
"65D3 chimeric Fab, NNK library L8 mutant N to R (VL N30R) (Fab, V domains shown) VH: QSLEESGGRLVTPGGSLTLTCTVSGFSLSTHDISWVRQAPGKGLEWIGVIARRGSTYYASWAKGRFTISKTSTTVDLKITSPTIEDTATYFCAREEFDFWGQGTLVTVSS VL: AVLTQTASPVSAAVGGTVTISCQSSQSVYRNKELSWFQQKPGQPPKLLISYASTLASGVPSRFKGSGSGTQFTLTISDLECDDAATYYCLGGYASTIDMWAFGGGTEVVVK",0.958 OD450,1.26 fold of WT,,
"65D3 chimeric Fab, NNK library L5 mutant S to K (VL S27K) (Fab, V domains shown) VH: QSLEESGGRLVTPGGSLTLTCTVSGFSLSTHDISWVRQAPGKGLEWIGVIARRGSTYYASWAKGRFTISKTSTTVDLKITSPTIEDTATYFCAREEFDFWGQGTLVTVSS VL: AVLTQTASPVSAAVGGTVTISCQSSQKVYNNKELSWFQQKPGQPPKLLISYASTLASGVPSRFKGSGSGTQFTLTISDLECDDAATYYCLGGYASTIDMWAFGGGTEVVVK",1.16 OD450,1.49 fold of WT,1.16 OD450,1.49 fold of WT
"65D3 chimeric Fab, NNK library L18 mutant L to S (VL L55S) (Fab, V domains shown) VH: QSLEESGGRLVTPGGSLTLTCTVSGFSLSTHDISWVRQAPGKGLEWIGVIARRGSTYYASWAKGRFTISKTSTTVDLKITSPTIEDTATYFCAREEFDFWGQGTLVTVSS VL: AVLTQTASPVSAAVGGTVTISCQSSQSVYNNKELSWFQQKPGQPPKLLISYASTSASGVPSRFKGSGSGTQFTLTISDLECDDAATYYCLGGYASTIDMWAFGGGTEVVVK",0.968 OD450,1.3 fold of WT,0.968 OD450,1.3 fold of WT
"65D3 chimeric Fab, NNK library L5 mutant S to Y (VL S27Y) (Fab, V domains shown) VH: QSLEESGGRLVTPGGSLTLTCTVSGFSLSTHDISWVRQAPGKGLEWIGVIARRGSTYYASWAKGRFTISKTSTTVDLKITSPTIEDTATYFCAREEFDFWGQGTLVTVSS VL: AVLTQTASPVSAAVGGTVTISCQSSQYVYNNKELSWFQQKPGQPPKLLISYASTLASGVPSRFKGSGSGTQFTLTISDLECDDAATYYCLGGYASTIDMWAFGGGTEVVVK",1.12 OD450,1.44 fold of WT,1.1 OD450 and 1.12 OD450,1.41 fold of WT and 1.44 fold of WT
"65D3 chimeric Fab, NNK library L5 mutant S to V (VL S27V) (Fab, V domains shown) VH: QSLEESGGRLVTPGGSLTLTCTVSGFSLSTHDISWVRQAPGKGLEWIGVIARRGSTYYASWAKGRFTISKTSTTVDLKITSPTIEDTATYFCAREEFDFWGQGTLVTVSS VL: AVLTQTASPVSAAVGGTVTISCQSSQVVYNNKELSWFQQKPGQPPKLLISYASTLASGVPSRFKGSGSGTQFTLTISDLECDDAATYYCLGGYASTIDMWAFGGGTEVVVK",1.09 OD450,1.41 fold of WT,1.09 OD450,1.41 fold of WT
"65D3 chimeric Fab, NNK library L5 mutant S to T (VL S27T) (Fab, V domains shown) VH: QSLEESGGRLVTPGGSLTLTCTVSGFSLSTHDISWVRQAPGKGLEWIGVIARRGSTYYASWAKGRFTISKTSTTVDLKITSPTIEDTATYFCAREEFDFWGQGTLVTVSS VL: AVLTQTASPVSAAVGGTVTISCQSSQTVYNNKELSWFQQKPGQPPKLLISYASTLASGVPSRFKGSGSGTQFTLTISDLECDDAATYYCLGGYASTIDMWAFGGGTEVVVK",1.11 OD450,1.43 fold of WT,1.11 OD450,1.43 fold of WT
"65D3 chimeric Fab, NNK library L5 mutant S to F (VL S27F) (Fab, V domains shown) VH: QSLEESGGRLVTPGGSLTLTCTVSGFSLSTHDISWVRQAPGKGLEWIGVIARRGSTYYASWAKGRFTISKTSTTVDLKITSPTIEDTATYFCAREEFDFWGQGTLVTVSS VL: AVLTQTASPVSAAVGGTVTISCQSSQFVYNNKELSWFQQKPGQPPKLLISYASTLASGVPSRFKGSGSGTQFTLTISDLECDDAATYYCLGGYASTIDMWAFGGGTEVVVK",1.11 OD450,1.43 fold of WT,1.11 OD450,1.43 fold of WT
"65D3 chimeric Fab, NNK library L3 mutant S to R (VL S25R) (Fab, V domains shown) VH: QSLEESGGRLVTPGGSLTLTCTVSGFSLSTHDISWVRQAPGKGLEWIGVIARRGSTYYASWAKGRFTISKTSTTVDLKITSPTIEDTATYFCAREEFDFWGQGTLVTVSS VL: AVLTQTASPVSAAVGGTVTISCQSRQSVYNNKELSWFQQKPGQPPKLLISYASTLASGVPSRFKGSGSGTQFTLTISDLECDDAATYYCLGGYASTIDMWAFGGGTEVVVK",0.963 OD450,1.19 fold of WT,0.963 OD450 and 0.995 OD450 and 1.04 OD450,1.19 fold of WT and 1.23 fold of WT and 1.29 fold of WT
"65D3 chimeric Fab, NNK library H26 mutant G to K (H-G64K) (Fab, V domains shown) VH: QSLEESGGRLVTPGGSLTLTCTVSGFSLSTHDISWVRQAPGKGLEWIGVIARRGSTYYASWAKKRFTISKTSTTVDLKITSPTIEDTATYFCAREEFDFWGQGTLVTVSS VL: AVLTQTASPVSAAVGGTVTISCQSSQSVYNNKELSWFQQKPGQPPKLLISYASTLASGVPSRFKGSGSGTQFTLTISDLECDDAATYYCLGGYASTIDMWAFGGGTEVVVK",,,1.09 OD450,1.3 fold of WT
"65D3 chimeric Fab, NNK library L8 mutant N to H (VL N30H) (Fab, V domains shown) VH: QSLEESGGRLVTPGGSLTLTCTVSGFSLSTHDISWVRQAPGKGLEWIGVIARRGSTYYASWAKGRFTISKTSTTVDLKITSPTIEDTATYFCAREEFDFWGQGTLVTVSS VL: AVLTQTASPVSAAVGGTVTISCQSSQSVYHNKELSWFQQKPGQPPKLLISYASTLASGVPSRFKGSGSGTQFTLTISDLECDDAATYYCLGGYASTIDMWAFGGGTEVVVK",0.957 OD450,1.26 fold of WT,1.02 OD450 and 0.957 OD450,1.34 fold of WT and 1.25 fold of WT
"65D3 chimeric Fab, NNK library L20 mutant S to T (L-S57T) (Fab, V domains shown) VH: QSLEESGGRLVTPGGSLTLTCTVSGFSLSTHDISWVRQAPGKGLEWIGVIARRGSTYYASWAKGRFTISKTSTTVDLKITSPTIEDTATYFCAREEFDFWGQGTLVTVSS VL: AVLTQTASPVSAAVGGTVTISCQSSQSVYNNKELSWFQQKPGQPPKLLISYASTLATGVPSRFKGSGSGTQFTLTISDLECDDAATYYCLGGYASTIDMWAFGGGTEVVVK",,,0.977 OD450,2.05 fold of WT
"65D3 chimeric Fab, NNK library L8 mutant N to K (VL N30K) (Fab, V domains shown) VH: QSLEESGGRLVTPGGSLTLTCTVSGFSLSTHDISWVRQAPGKGLEWIGVIARRGSTYYASWAKGRFTISKTSTTVDLKITSPTIEDTATYFCAREEFDFWGQGTLVTVSS VL: AVLTQTASPVSAAVGGTVTISCQSSQSVYKNKELSWFQQKPGQPPKLLISYASTLASGVPSRFKGSGSGTQFTLTISDLECDDAATYYCLGGYASTIDMWAFGGGTEVVVK",1.04 OD450,1.37 fold of WT,1.04 OD450 and 1.03 OD450,1.37 fold of WT and 1.35 fold of WT
"65D3 chimeric Fab, NNK library L3 mutant S to H (VL S25H) (Fab, V domains shown) VH: QSLEESGGRLVTPGGSLTLTCTVSGFSLSTHDISWVRQAPGKGLEWIGVIARRGSTYYASWAKGRFTISKTSTTVDLKITSPTIEDTATYFCAREEFDFWGQGTLVTVSS VL: AVLTQTASPVSAAVGGTVTISCQSHQSVYNNKELSWFQQKPGQPPKLLISYASTLASGVPSRFKGSGSGTQFTLTISDLECDDAATYYCLGGYASTIDMWAFGGGTEVVVK",0.95 OD450,1.18 fold of WT,0.95 OD450 and 0.97 OD450,1.18 fold of WT and 1.2 fold of WT
"65D3 chimeric Fab, NNK library L3 mutant S to T (VL S25T) (Fab, V domains shown) VH: QSLEESGGRLVTPGGSLTLTCTVSGFSLSTHDISWVRQAPGKGLEWIGVIARRGSTYYASWAKGRFTISKTSTTVDLKITSPTIEDTATYFCAREEFDFWGQGTLVTVSS VL: AVLTQTASPVSAAVGGTVTISCQSTQSVYNNKELSWFQQKPGQPPKLLISYASTLASGVPSRFKGSGSGTQFTLTISDLECDDAATYYCLGGYASTIDMWAFGGGTEVVVK",0.956 OD450,1.19 fold of WT,0.956 OD450,1.19 fold of WT
"65D3 chimeric Fab, NNK library L5 mutant S to M (VL S27M) (Fab, V domains shown) VH: QSLEESGGRLVTPGGSLTLTCTVSGFSLSTHDISWVRQAPGKGLEWIGVIARRGSTYYASWAKGRFTISKTSTTVDLKITSPTIEDTATYFCAREEFDFWGQGTLVTVSS VL: AVLTQTASPVSAAVGGTVTISCQSSQMVYNNKELSWFQQKPGQPPKLLISYASTLASGVPSRFKGSGSGTQFTLTISDLECDDAATYYCLGGYASTIDMWAFGGGTEVVVK",1.14 OD450,1.47 fold of WT,1.16 OD450 and 1.14 OD450,1.49 fold of WT and 1.47 fold of WT
